Laboratory results as given in PMC3695229, “Identification of a Novel TGF-β-Binding Site in the Zona Pellucida C-terminal (ZP-C) Domain of TGF-β-Receptor-3 (TGFR-3)” (PLoS ONE, 2013).
Substitutions are numbered along the chain they refer to.

B1: murine TGFR-3-ZP (recombinant ZP domain of TGF-β receptor type 3, residues 438-782, including the EHP) (domain or fragment, mouse, UniProt O88393 438-782, looked up)
chain: REPEEVQGGVNIALSVKCDNEKMVVAVDKDSFQTNGYSGMELTLLDPSCKAKMNGTHFVLESPLNGCGTRHRRSAPDGVVYYNSIVVQAPSPGDSSGWPDGYEDLESGDNGFPGDTDEGETAPLSRAGVVVFNCSLRQLRSPSGFQDQLDGNATFNMELYNTDLFLVPSPGVFSVAENEHVYVEVSVTKADQDLGFAIQTCFISPYSNPDRMSDYTIIENICPKDDSVKFYSSKRVHFPIPHAEVDKKRFSFVFKSVFNTSLLFLHCELTLCSRNKGSQKLPKCVTPDDACTSLDATMIWTMMQNKKTFTKPLAVVLQVDYKENVPNMKESSPVPPPPQIFHGLD
modifications: secretory glycoprotein; four potential N-glycosylation sites (positions 491, 570, 589 and 696)
notes: TGF-β receptor type 3 (TGFR-3, betaglycan), mouse, residues 438-782 (ZP core domain plus C-terminal extension 729-782 with the EHP); numbering adheres to UniProtKB/TrEMBL O88393 and includes the N-terminal signal peptide; From the forward primer the thrombin site LVPRGS precedes residue 438, so Gly-Ser probably remain after cleavage (surmised); Dimer by DLS and SEC only (apparent masses); also …
B2: TGFR-3-ZP(234) (domain or fragment, mouse, UniProt O88393 438-782, looked up)
chain: B1 chain with N133Q, N152Q, N259Q
modifications: one remaining potential N-glycosylation site (N491)
notes: TGF-β receptor type 3 (TGFR-3, betaglycan), mouse, residues 438-782 with three of four potential N-glycosylation sites mutated to glutamine; numbering adheres to O88393 including the signal peptide; Same construct and vector as m1; also called glycosylation-attenuated TGFR-3-ZP variant; source: HEK293 EBNA cells, secreted, purified (Ni-Sepharose, thrombin cleavage, SEC); not shown: His6, …
B3: human BMP-2 (ligand, UniProt P12643 283-396, looked up)
chain: QAKHKQRKRLKSSCKRHPLYVDFSDVGWNDWIVAPPGYHAFYCHGECPFPLADHLNSTNHAIVQTLVNSVNSKIPKACCVPTELSAISMLYLDENEKVVLKNYQDMVVEGCGCR
modifications: biotinylated with Sulfo-NHS-LC-biotin (1 or 2 biotin moieties) for immobilisation
notes: bone morphogenetic protein 2, human; also called bone morphogenetic protein 2

Experiments:
[1] = molecular target: the molecule itself; experiment: dynamic light scattering; TGFR-3-ZP alone, 2 mg/ml, 20 mM HEPES pH 7.4, 20°C; apparent molecular weight from hydrodynamic radius
[2] = molecular target: the molecule itself; experiment: SEC; analytical SEC of the ligand-free protein on Superdex 200 10/300, 4°C, 0.5 ml/min; apparent molecular weight against standards
[3] = molecular target: B1; experiment: SPR; Biacore 2000; biotinylated ligands immobilised on streptavidin-coated CM5 chip, TGFR-3-ZP variants as analytes; 25°C, HBS500 (10 mM HEPES pH 7.4, 500 mM NaCl, 3.4 mM EDTA, 0.005% P20); apparent affinities from equilibrium binding; conditions: both partners purified
TGFR-3-ZP(234) = molecular target: B2; experiment: as above; conditions: both partners purified

Q: Which “stoichiometry N” value [1] does the source give for B1 here?
A: 2

Q: Which “stoichiometry N” value [2] does the source give for B2 here?
A: 2

Q: Which results are given for B3?
A: Kd [3]: 29.1 µM; Kd (TGFR-3-ZP(234)): 34.6 µM
